Results published in article PMC9734383 (2022).
“And” between values parts separate entries of the source, which are not always exact repeats. Equal values may be shown once.

How the values were obtained:
Experiment in all cases: BLI
[1] = target: H12 HA (recombinant HA of the panel) (influenza A virus (strain  in …))
[2] = target: H6 HA (recombinant HA of the panel) (influenza A virus (strain  in …))
[3] = target: H4 HA (recombinant HA of the panel) (influenza A virus (strain  in …))
[4] = target: H18 HA (recombinant HA of the panel) (influenza A virus, bat H18N11 (strain …))
[5] = target: H1 HA (recombinant HA of the panel) (influenza A virus (strain  in …))
[6] = target: H17 HA (recombinant HA of the panel) (influenza A virus, bat H17N10 (strain …))
[7] = target: H14 HA (recombinant HA of the panel) (influenza A virus (strain  in …))
[8] = target: H10 HA (recombinant HA of the panel) (influenza A virus (strain  in …))
[9] = target: H11 HA (recombinant HA of the panel) (influenza A virus (strain  in …))
[10] = target: H3 HA (recombinant HA of the panel) (influenza A virus (strain  in …))
[11] = target: H5 HA (recombinant HA of the panel) (influenza A virus (strain  in …))
[12] = target: H9 HA (recombinant HA of the panel) (influenza A virus (strain  in …))
[13] = target: H15 HA (recombinant HA of the panel) (influenza A virus (strain  in …))
[14] = target: H8 HA (recombinant HA of the panel) (influenza A virus (strain  in …))
[15] = target: H1-HA (A/swine/Guangdong/104/2013) (influenza A virus …)

B1: PN-SIA28 Fab (Fab, V domains shown)
VH: QVQLVESGGGVVQPGRSLRLSCAASGFPFSSYGMHWVRQAPGKGLEWVAGVSYDGSYKYYADSVKGRFTISRDSSKSTLYLQMNSLRPEDTAVYYCARPSAIFGIYIILNGLDVWGQGTTVTVSS
VL: EIVLTQSPSSVSASVGDRVTITCRATQGISSWLAWYQQKPGKPPKLLIFGASSLQSGVPSRFSGSGSGTDFTLTISSLQPEDFATYFCQQAHSFPLTFGGGTKVEIK
Q: B1 was tested. Which Kd [1] did it give?
A: 14900 nM

Q: What about the Kd [2] of the same binder?
A: 66.8 nM

Q: And the Kd [3]?
A: 201 nM

Q: What about the Kd [4] of the same binder?
A: 40.2 nM

Q: And the Kd [5]?
A: 0.174 nM

Q: And the Kd [6]?
A: 208 nM

Q: And the Kd [7]?
A: 171 nM

Q: What about the Kd [8] of the same binder?
A: 1160 nM

Q: And the Kd [9]?
A: 682 nM

Q: What about the Kd [10] of the same binder?
A: 144 nM

Q: What about the Kd [11] of the same binder?
A: 6.3 nM and 6.79 nM

Q: What about the Kd [12] of the same binder?
A: 34.3 nM

Q: What about the Kd [13] of the same binder?
A: 2380 nM

Q: And the Kd [14]?
A: 36 nM

Q: And the Kd [15]?
A: 0.26 nM
